Test results: the MegaScale stability set (Tsuboyama et al. 2023)

B1: EEHEE_rd4_0763 (parent)
chain: LTVHVGNVTYHFDNPEQAEEWAKRMAKKYQGQIHVKDGQFRIE

Variants of: B1
Assay: folding stability dG (cDNA display proteolysis); higher = more stable
Details: PBS, room temperature

Folding stability dG [kcal/mol] of substitutions, site by site:
Q30: T 1.2, F 1.43, W 1.31, I 1.18, K 1.92, M 1.59, H 2.02, L 1.39, N 2.06, G 2.24, V 1.23
P15: V 1.71, K 1.78, S 1.69, N 1.38, T 1.58, D 1.17
L1: T 2.05, Q 1.45, M 1.84, P 1.73, W 3.2, I 1.7, A 2.1, Y 2.92, V 1.86
I42: E 1.08, T 1.08, N 1.05, D 1.17, R 0.894, Y 1.12, H 1.12, P 1.14, A 1.02, W 1.32
R41: D 1.34, I 2.6, H 2.48, F 3.1, S 1.57, A 1.4
Q17: P 0.493, G 1.11, K 1.63, W 1.54, L 1.71, D 1.8, H 1.54, A 1.83
E19: N 1.35, T 1.41, P 0.646, I 1.87, D 1.06, G 1.21, W 2.63, A 1.71
A26: E 0.642, L 1.25, R 1.06, I 1.06, W 1.28, N 0.911, Y 1.15
V8: G 0.756, K 1.74, S 1.37, R 1.96, Q 1.58, L 1.66
Q39: M 1.36, S 1.57, E 1.88, R 1.09, H 1.76, V 1.57, D 1.63, A 1.71
G31: S 1.47, M 2.06, K 1.24, C 2.42, W 1.86, E 0.971
A22: D -0.159, E 0.234, T 0.746, M 1.36, P -0.823, L 1.36, K 0.757, F 1.23
V5: F 1.74, T 0.582, W 1.82, N 0.616, D 0.649, E 0.355, L 1.54, I 1.69, K 0.531
E16: F 1.63, M 1.66, K 1.77, A 1.68, S 1.61, Y 1.66
T9: N 0.836, H 1.47, G 0.696, D 1.01, V 1.98, M 1.55, A 1.58, I 1.92, L 1.58, W 1.28
K23: C 2.37, A 1.3, L 1.69, H 1.58, P -0.41, S 1.16, T 1.32, I 1.76, R 1.85, M 1.61, Y 1.62
E20: Y 1.69, Q 1.69, R 1.81, T 1.39, N 1.58, W 1.92, D 1.54, F 1.57, I 1.58
Q32: T 1.99, S 1.62, R 1.64, L 1.48, V 2.02, P 0.998, C 1.93, D 1.27, Y 1.51, W 1.21, G 1.01
K28: Q 1.35, M 1.5, Y 1.72, E 1.37, N 0.823, R 1.78, T 1.03, G 0.692, S 0.897, H 1.53, F 1.67
Y10: I 0.978, T 0.369, P 0.292, W 1.85, Q 0.381, S 0.143, N 0.135, H 0.965, A 0.513, F 1.54, C 1.77
K27: F 1.57, E 1.67, R 1.75, W 1.45, L 1.75
V3: Y 0.756, H 0.452, G 0.606, K 0.424, P 0.241, I 1.09, L 1.06, A 0.668, N 0.243, C 1.34
H4: A 1.55, F 1.6, Y 1.59, L 1.88, W 1.82, S 1.72
N14: Y 1.43, R 1.45, A 1.42, M 1.31, L 1.59, S 1.67, P -0.002
W21: Y 1.5, C 2.55, K -0.246, L 0.668, F 2.28, T 0.307, S 0.046, N 0.008
D13: T 1.74, S 1.7, K 1.67
Y29: W 1.61, N 0.767, K 0.706, F 1.53, A 0.762, C 2.16, P 0.306, R 0.723
F40: D 1.03, W 1.88, T 1.2, A 1.06, E 1.15
E43: S 1.4, I 2, D 1.44, T 1.66, H 1.44, K 1.23, G 1.26, M 1.5, W 1.55
R24: S 1.33, Q 1.54, M 1.85, H 1.44, T 1.45, V 1.58
D37: N 1.43, T 0.617, A 0.671, W 0.774, P 0.309, I 0.903, G 1.12, Y 0.742, C 2.15
T2: Y 1.59, K 1.41, M 1.53, H 1.53, F 1.58
H34: T 2.03, L 1.75, D 1.26, M 1.69, R 1.55, K 1.6, Q 1.61
K36: A 1.49, H 1.75, C 2.46
I33: T 0.877, L 1.65, Q 0.795, R 0.644, H 0.852, C 2.07, A 1.03, V 1.59
V35: G 0.956, W 1.81, M 1.61, R 1.08, T 1.18, I 1.74, D 0.963
N7: S 1.7, P 1.45, V 1.4, H 1.69, D 1.41, I 1.49, T 1.67, R 1.76, K 1.65, M 1.57
F12: C 1.44, T -0.063, N -0.088, H 0, M 0.22, V 0.101, I 0.276, S 0.081, R -0.481
M25: R 0.567, C 2.03, V 1.23, G 0, Y 1.45, A 0.874, F 1.42, I 1.44, W 1.34, K 0.502, S 0.407
H11: G 0.755, A 1.31, S 1.43, K 1.6, T 1.67
G38: A 0.755, H 1.02, K 0.828, T 0.621, Y 0.909, E 1.07, S 0.873, D 1.25
A18: E 0.367, L 1.27, I 1.01, Q 0.969, T 0.517
G6: R 1.31, V 0.969, P 0.447, M 1.51, F 1.84, E 1.01, Y 1.5, S 1.11, I 1.18
